Assays:
[1] = biological target: T1, recombinant PCNA (Homo sapiens, UniProt P12004); experiment: FP assay, direct binding of TAMRA-labelled PIP box peptides to PCNA
T1 construct: made in house; host or cells: Escherichia coli BL21 (DE3)

[2] = tested on: PCNA; experiment: X-ray crystal structure of PCNA/PIP peptide complexes; assay type: binding, human; conditions: PCNA trimer; Cdt2 3.5 Å (6QC0), Cdt1 3.4 Å (6QCG)
Protocol: The protein solution at 17 mg·ml^−1 was pre-incubated with an equimolar amount of peptide, and 0.1 μl of this solution was mixed with 0.1 μl of reservoir solution and equilibrated against a 30 μl reservoir. Crystals for the Cdt2 complex were obtained in 10% (wt/vol) PEG 6000 and 100 mM MES/HCl, pH 6.0. Crystals for the Cdt1 complex were obtained in 15% (wt/vol) PEG 400, 100 mM calcium acetate, and 100 mM MES/HCl, pH 6.0. Crystals appeared at 4°C within 72 h. Crystals were briefly transferred to a cryo-protectant solution containing the reservoir solution and 25% (wt/vol) PEG200 and vitrified by dipping in liquid nitrogen.
X-ray data were collected on beamline ID29 at the European Synchrotron Radiation Facility. The images were integrated with XDS ([Kabsch, 2010]) and merged and scaled with AIMLESS ([Evans, 2011]). […] The models were built using COOT ([Emsley et al, 2010]) and refined with REFMAC ([Murshudov et al, 2011]) in iterative cycles. Model re-building and refinement parameter adjustment were performed in PDB-REDO ([Joosten et al, 2014]); homology-based hydrogen bond restraints ([van Beusekom et al, 2018]) were used at some stages of the procedure. The quality of the models was evaluated by MOLPROBITY ([Chen et al, 2010]). […]

[3] = biological target: T2, PCNA (recombinant, for the in vitro binding assays; free or loaded on DNA) (human, UniProt P12004 1-261); experiment: pull-down; PCNA loaded by RFC (2 mM ATP, 37°C, 1 h) on nicked circular DNA beads, washed; beads incubated with purified Cdt1-3FLAG or CRL4^Cdt2 alone at 4°C for 1 h in HBS buffer (10 mM Hepes pH 7.4, 10 mM MgCl2, 0.2 mM EDTA, 0.05% Tween 20, 0.15 M NaCl); bound proteins by Western blot; conditions: both partners purified
T2 construct: PCNA, human, purified essentially as a trimer as described (Fukuda et al, 1995); also called free PCNA; PCNA^(on DNA); source: E. coli Rosetta(DE3) transformed with pT7-PCNA, purified (Resource Q, Superdex 200, Mono Q)

[4] = tested on: free PCNA; experiment: Binding of free PCNA to Cdt1 or CRL4^Cdt2 on anti-FLAG beads; parameters: species or system human; conditions: 2 h at 4°C, Western blotting, three independent experiments
Source text: FLAG-tagged Cdt1 (Cdt1-3FLAG) and CRL4^Cdt2 (Cdt2-3FLAG) were expressed in insect cells and purified on anti-FLAG resin (Fig 5A).

[5] = tested on: PCNA loaded on nicked circular DNA (PCNA^on DNA); experiment: Binding of purified Cdt1 and CRL4^Cdt2 to PCNA loaded on ncDNA beads; parameters: species or system human; conditions: RFC +, 4°C 1 h, n = 3 or n > 3
Protocol: In our in vitro conditions, three molecules of PCNA trimer were loaded on one plasmid DNA. […] The interaction was not mediated by RFC proteins bound on ncDNA (Fig 5D, lane 6).
Figure S5. […] The beads were then incubated with Cdt1 or CRL4^Cdt2 (Step 2; binding). (B) RFC-dependent loading of PCNA.
Closed circular (cc) DNA beads were prepared as described ([Higashi et al, 2012]). Briefly, single-stranded DNA templates prepared using pBluescript II KS(−) were annealed with a biotinated oligonucleotide primer (5′-[…] [biotin-dT][…]-3′). After second-strand synthesis and ligation, covalently cc double-stranded DNA was purified by CsCl/EtBr density gradient centrifugation, incubated with streptavidin, and bound to biotin-sepharose beads to produce the cc DNA beads (around 100 ng per 1 μl bed volume of beads). A single nick was introduced by Nb.BbvCI (New England Biolabs) treatment to produce the ncDNA beads. As control beads, biotin-sepharose beads were incubated with streptavidin alone (sa-beads).
The sa-beads were treated in the same way and used as control beads. The beads were incubated with Cdt1 or CRL4^Cdt2 alone at 4°C for 1 h and washed with HBS buffer. The bound proteins were analysed on Western blotting. […] The purified nc DNA was run on 0.8% agarose gel in 1× TBE (Tris-borate-EDTA) buffer and detected with ethidium bromide.

[6] = tested on: UV-C–damaged sites in MCF7 cells; experiment: FRAP of GFP-tagged proteins at sites of local UV-C damage in MCF7 cells; assay type: cell-based, human; conditions: GFP-tagged, UV-C 50 J/m^2

T2 sequence (P12004 whole entry): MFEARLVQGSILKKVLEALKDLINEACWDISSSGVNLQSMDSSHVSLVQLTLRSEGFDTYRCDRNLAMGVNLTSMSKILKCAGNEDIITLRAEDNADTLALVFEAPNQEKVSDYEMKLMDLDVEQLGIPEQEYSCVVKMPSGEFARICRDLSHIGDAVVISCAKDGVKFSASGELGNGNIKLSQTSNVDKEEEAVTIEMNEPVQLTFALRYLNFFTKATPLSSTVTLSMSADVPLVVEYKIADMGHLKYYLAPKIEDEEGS
T1 sequence (P12004 whole entry): as above

MEQRRVTDFFARRR [Cdt1^PIP, Cdt1 PIP box peptide (1–14)]
relative affinity for PCNA, Cdt2^PIP versus Cdt1^PIP [1]: two orders of magnitude weaker
binding stoichiometry in crystal [2]: one peptide bound per monomer

B1: Cdt1-3FLAG (natural protein, human, UniProt Q9H211 1-546, looked up)
chain: MEQRRVTDFFARRRPGPPRIAPPKLACRTPSPARPALRAPASATSGSRKRARPPAAPGRDQARPPARRRLRLSVDEVSSPSTPEAPDIPACPSPGQKIKKSTPAAGQPPHLTSAQDQDTISELASCLQRARELGARVRALKASAQDAGESCTPEAEGRPEEPCGEKAPAYQRFHALAQPGLPGLVLPYKYQVLAEMFRSMDTIVGMLHNRSETPTFAKVQRGVQDMMRRRFEECNVGQIKTVYPASYRFRQERSVPTFKDGTRRSDYQLTIEPLLEQEADGAAPQLTASRLLQRRQIFSQKLVEHVKEHHKAFLASLSPAMVVPEDQLTRWHPRFNVDEVPDIEPAALPQPPATEKLTTAQEVLARARNLISPRMEKALSQLALRSAAPSSPGSPRPALPATPPATPPAASPSALKGVSQDLLERIRAKEAQKQLAQMTRCPEQEQRLQRLERLPELARVLRSVFVSERKPALSMEVACARMVGSCCTIMSPGEMEKHLLLLSELLPDWLSLHRIRTDTYVKLDKAADLAHITARLAHQTRAEEGL
notes: Cdt1, human; also called FLAG-tagged Cdt1; Cdt1-3FLAG (WT); source: Sf21 insect cells (baculovirus), purified (DEAE flowthrough, anti-FLAG resin, 3× FLAG peptide elution); not shown: 3FLAG, C-terminal, kept
stoichiometry N [3]: 2.04 Cdt1 molecules on one PCNA trimer

B2: Cdt1: DNA replication licensing factor, FLAG-tagged, purified from insect cells; GFP-tagged in FRAP (protein, UniProt Q9H211 1-546, looked up)
DNA replication factor Cdt1: MEQRRVTDFFARRRPGPPRIAPPKLACRTPSPARPALRAPASATSGSRKRARPPAAPGRDQARPPARRRLRLSVDEVSSPSTPEAPDIPACPSPGQKIKKSTPAAGQPPHLTSAQDQDTISELASCLQRARELGARVRALKASAQDAGESCTPEAEGRPEEPCGEKAPAYQRFHALAQPGLPGLVLPYKYQVLAEMFRSMDTIVGMLHNRSETPTFAKVQRGVQDMMRRRFEECNVGQIKTVYPASYRFRQERSVPTFKDGTRRSDYQLTIEPLLEQEADGAAPQLTASRLLQRRQIFSQKLVEHVKEHHKAFLASLSPAMVVPEDQLTRWHPRFNVDEVPDIEPAALPQPPATEKLTTAQEVLARARNLISPRMEKALSQLALRSAAPSSPGSPRPALPATPPATPPAASPSALKGVSQDLLERIRAKEAQKQLAQMTRCPEQEQRLQRLERLPELARVLRSVFVSERKPALSMEVACARMVGSCCTIMSPGEMEKHLLLLSELLPDWLSLHRIRTDTYVKLDKAADLAHITARLAHQTRAEEGL
modifications: FLAG or eGFP tag
notes: DNA replication licensing factor, FLAG-tagged, purified from insect cells; GFP-tagged in FRAP
binding of free PCNA to protein beads [4]: PCNA was detected
bound protein [5]: 301 fmol
FRAP behaviour at UV-C–damaged sites [6]: dynamic interactions

From publication PMC6312923 (Life Science Alliance, 2018)
